Legend:
[1] = target: T1, human FAPα (Fibroblast activation protein alpha), cell surface expressed (human, UniProt Q12884 1-760); assay: flow cytometry, human lung fibroblasts, n = 3
T1 construct: Endogenous on human lung fibroblasts and CAFs
T1 sequence: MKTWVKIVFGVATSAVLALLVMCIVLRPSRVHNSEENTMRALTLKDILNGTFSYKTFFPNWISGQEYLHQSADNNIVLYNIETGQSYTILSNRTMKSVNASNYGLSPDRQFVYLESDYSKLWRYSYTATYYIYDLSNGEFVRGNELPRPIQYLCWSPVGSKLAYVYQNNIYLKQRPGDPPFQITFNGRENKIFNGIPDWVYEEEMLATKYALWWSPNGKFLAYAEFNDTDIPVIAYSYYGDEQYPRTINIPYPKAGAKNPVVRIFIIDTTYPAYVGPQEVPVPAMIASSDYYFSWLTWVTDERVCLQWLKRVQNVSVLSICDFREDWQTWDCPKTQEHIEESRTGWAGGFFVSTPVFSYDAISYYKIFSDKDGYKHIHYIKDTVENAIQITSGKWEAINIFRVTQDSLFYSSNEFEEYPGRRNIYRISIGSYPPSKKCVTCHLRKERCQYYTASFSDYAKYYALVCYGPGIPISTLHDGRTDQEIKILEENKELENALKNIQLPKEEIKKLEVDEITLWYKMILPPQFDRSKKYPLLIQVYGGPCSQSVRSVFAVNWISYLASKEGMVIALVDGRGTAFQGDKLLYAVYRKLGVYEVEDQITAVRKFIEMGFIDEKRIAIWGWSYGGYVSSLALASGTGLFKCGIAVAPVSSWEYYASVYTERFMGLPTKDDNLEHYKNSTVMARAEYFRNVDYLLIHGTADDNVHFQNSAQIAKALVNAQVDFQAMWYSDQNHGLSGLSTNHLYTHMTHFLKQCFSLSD
Description: Binding of bispecific or monoclonal antibodies carrying the anti-FAPα arm derived from IgG1-FAPα-FERL (BisG1-FAPα-FERL/DR4-FERR, BisG1-FAPα-FERL/b12-FERR, and IgG1-FAPα-FERL) to cell surface expressed human FAPα was analyzed by flow cytometry using human lung fibroblasts and CAFs, which endogenously express FAPα. BisG1-b12-FERL/b12-FERR was used as negative control.
Human lung fibroblasts and CAFs (50,000 cells/well) were seeded in 96-Well round bottom plates (Greiner Bio-one, Cat #650101). Antibody dilutions were prepared using fluorescence-activated cell sorting (FACS) buffer, consisting of phosphate buffer saline (PBS, Lonza, Cat #BE17-517Q)+1% Bovine Serum Albumin (BSA, Roche, Cat #10735086001)+0.02% Sodium Azide (Bio-World, Cat #41920044-3). Plates were centrifuged, supernatant was removed, cells were resuspended in 50 μL of human Fc Block (BD, Cat #564220, diluted 1:100 in FACS buffer) and 50 μL of viability stain TO-PRO-3 Iodide (Thermo Fisher, Cat #T3605, diluted 1: 25,000 in FACS buffer), and incubated for 15 min at 4° C. Plates were washed three times with FACS buffer. Plates were centrifuged, supernatant was removed, cells were resuspended in 50 μL of antibody dilutions (concentration range 90-0.0005 μg/mL, three-fold dilution steps using FACS buffer) of BisG1-FAPα-FERL/DR4-FERR, BisG1-FAPα-FERL/b12-FERR, BisG1-b12-FERL/b12-FERR (top six concentrations only for CAFs culture) or IgG1-FAPα-FERL (top four concentrations only for CAFs culture) and incubated for 30 min at 4° C. Cells were washed three times with FACS buffer and resuspended in 50 μL of Fluorescein isothiocyanate (FITC)-labeled polyclonal antibody goat anti-mouse IgG1 (Jackson Immuno Research, Cat #109-096-097, diluted 1:100 in FACS buffer). […] Antibody binding to viable cells (TO-PRO-3 negative) was analyzed by flow cytometry on a FACSCelesta™ (BD biosciences) and data were processed using FlowJo_v10.8.1 (FlowJo LLC). Geomean fluorescence intensity, gMFI, was determined and visualized using GraphPad Prism.

[2] = target: T2, human DR4 (Death Receptor 4), cell surface expressed on human tumor cell lines (human, UniProt O00220 24-468); assay: flow cytometry, A549 cells, average ± SEM
T2 construct: also called TNFRSF10A; TRAIL-R1
T2 sequence: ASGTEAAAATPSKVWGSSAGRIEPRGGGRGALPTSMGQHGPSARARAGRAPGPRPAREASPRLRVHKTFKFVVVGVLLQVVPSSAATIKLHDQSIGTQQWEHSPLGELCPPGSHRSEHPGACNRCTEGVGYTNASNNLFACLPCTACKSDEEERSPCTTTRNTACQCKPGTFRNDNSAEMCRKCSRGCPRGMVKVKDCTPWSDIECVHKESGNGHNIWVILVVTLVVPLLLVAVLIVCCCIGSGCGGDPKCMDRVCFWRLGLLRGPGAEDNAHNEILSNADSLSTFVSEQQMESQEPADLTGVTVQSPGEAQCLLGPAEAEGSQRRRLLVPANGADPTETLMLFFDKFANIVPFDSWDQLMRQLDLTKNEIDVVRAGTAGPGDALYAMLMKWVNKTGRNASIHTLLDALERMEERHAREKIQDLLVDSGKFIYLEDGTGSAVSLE

EC50 [1]: 0.059 µg/mL
B1: BisG1-FAPα-FERL/DR4-FERR (bispecific antibody, human IgG1, kappa, lambda)
heavy 1: EVQLLESGGGLVQPGGSPRLSCEASGFTFSSYALSWVRQAPGKGLEWVSAISGSGGGRYYADSVKGRFTISRDNSKNTLFLQMNSLRAEDTAVYYCAKEGYSSSGTYWDHWGQGTLVTVSSASTKGPSVFPLAPSSKSTSGGTAALGCLVKDYFPEPVTVSWNSGALTSGVHTFPAVLQSSGLYSLSSVVTVPSSSLGTQTYICNVNHKPSNTKVDKRVEPKSCDKTHTCPPCPAPEFERGPSVFLFPPKPKDTLMISRTPEVTCVVVDVSHEDPEVKFNWYVDGVEVHNAKTKPREEQYNSTYRVVSVLTVLHQDWLNGKEYKCKVSNKALPAPIEKTISKAKGQPREPQVYTLPPSREEMTKNQVSLTCLVKGFYPSDIAVEWESNGQPENNYKTTPPVLDSDGSFLLYSKLTVDKSRWQQGNVFSCSVMHEALHNHYTQKSLSLSPG
light 1: AIQMTQSPSSVSASVGDRVTITCRASQGVSSWLAWYQQKPGRAPKLLIYVASTLQSGVPSRFSGSGSGTDFTLTINSLQPEDFATYYCQQANSFPPTFGQGTRLEMKRTVAAPSVFIFPPSDEQLKSGTASVVCLLNNFYPREAKVQWKVDNALQSGNSQESVTEQDSKDSTYSLSSTLTLSKADYEKHKVYACEVTHQGLSSPVTKSFNRGEC
heavy 2: QVQLQESGPGLVKPSGTLSLTCAVSGGSISSYSWWSWIRQPPGKGLEWIGELYHSGSTNYNPSLKSRVTISVDKSKNQFSLKLRSVTAADTAVYYCVRGVATIDYWGQGTLVTVSSASTKGPSVFPLAPSSKSTSGGTAALGCLVKDYFPEPVTVSWNSGALTSGVHTFPAVLQSSGLYSLSSVVTVPSSSLGTQTYICNVNHKPSNTKVDKRVEPKSCDKTHTCPPCPAPEFERGPSVFLFPPKPKDTLMISRTPEVTCVVVDVSHEDPEVKFNWYVDGVEVHNAKTKPREEQYNSTYRVVSVLTVLHQDWLNGKEYKCKVSNKALPAPIEKTISKAKGQPREPQVYTLPPSREEMTKNQVSLTCLVKGFYPSDIAVEWESNGQPENNYKTTPPVLDSDGSFFLYSRLTVDKSRWQQGNVFSCSVMHEALHNHYTQKSLSLSPG
light 2: QSALTQPPSASGSPGQSVTISCTGTSSDVGGYNFVSWYQQDPGKAPKLLIYEVTKRPSGVPDRFSGSKSGNTASLTVSGLQAEDEADYYCSSYAGSNNVMFGGGTKLTVLGQPKAAPSVTLFPPSSEELQANKATLVCLISDFYPGAVTVAWKADSSPVKAGVETTTPSKQSNNKYAASSYLSLTPEQWKSHRSYSCQVTHEGSTVEKTVAPTECS
notes: Human IgG1 bispecific made by controlled Fab-arm exchange of IgG1-FAPα-FERL and IgG1-DR4-FERR; monovalent for FAPα and for DR4; also called GEN1057
EC50 [2]: 0.89 µg/mL
